In the RNAGym collection of RNA variant scans (doi:10.1073/pnas.2313332121):
This sample holds only a part of the variants without activity.

B1: TPR 5TU (parent)
chain: GGAUCUUCUCGAUCUAACAAAAAAGACAAAUCUGCCACAAAGCUUGAGAGCAUCUUCGGAUGCAGAGGCGGCAGCCUUCGGUGGCGCGAUAGCGCCAACGUUCUCAACUAUGACACGCAAAACGCGUGCUCCGUUGAAUGGAGUUUAUCAUG

Variants of: B1
Test: polymerase ribozyme fitness, log enrichment relative to wild type (log ratio); higher = more active; in vitro selection for triplet polymerase activity
How it was run: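 Fitness compares each genotype's enrichment to that of the wild type on a logarithmic scale, averaging replicates with inverse-variance weights. The logarithm is base 2. Enrichment came from Illumina sequencing of input and output libraries after one triplicate round of in vitro selection, which included frozen incubation at −7 °C, of PCR-built, transcribed mutant libraries of each subunit of a heterodimeric triplet polymerase ribozyme. Only genotypes with ≥10 input reads and ≥1 read per output were kept.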

Variant | polymerase ribozyme fitness (log ratio)
C85A G133C U134G U145G | ≤ -4.2
C76U U78C A137G | -2.11
U82G G88C C93U C95G | ≤ -4.2
G83A U101G U135C C149A | ≤ -4.2
G84U A89U A98U G126U | -0.825
G81A G84A | -0.338
C76U U101G G124A | -0.411
C76U G128U | -3.27
C85A C105U G141C | -3.45
U82C C95U | -1.92
G80A U82G | 0.0436
G81U G84C | -3.22
U78A C93A G94U G140A G143A | ≤ -4.2
C85A C96A G128C | -4.03
C85A C108U | -3.66
G84A C87A | ≤ -4.2
U78A C87U A91G A98C A120C U130G G141A | ≤ -4.2
G80A A97G | -1.88
C79A U90A G133U G143C | ≤ -4.2
G83U C95U C116U | -2.67
G84U A150G | -2.7
U82G G92C A113U | -3
G81C A107U | -3.29
C76U G83C U134A A142U | ≤ -4.2

Variant | polymerase ribozyme fitness (log ratio)
G84A G94C | -1.72
C85A C114U | -3.28
U82A C96A A110G A137G | -3.99
C85A C103A C125A | -3.33
G83C G140U | -4.01
G80A C99G G124A | -0.389
G84U C85G C96G | -3.84
G80A C87U | -0.519
C79U G100A A115C | -1.13
C79U G94C | -3.64
C79A C93A | -4.12
G84U G117U C123A | -1.62
U82G C95U U102G | -3.59
U82A G88A A115U A121U | ≤ -4.2
G83U A91C | ≤ -4.2
G83A C96U | -0.419
G83U G141C | -1.18
U82G C93U G141A | -0.284
G80A A91G A122U | -2.08
G84A A115U U134G | -4.01
G84A U102G C125G | -3.78
G81U U90C C99A A142G | ≤ -4.2
G83C A113U U145C | -3.3
G81C G112A A137U U148A | ≤ -4.2

Variant | polymerase ribozyme fitness (log ratio)
G81A U104G C105A G136C U146C | ≤ -4.2
C79G C87U | -3.7
C76U C105U C116G | -1.03
G83C U102G | -4.12
G83C C87G C114U A120U A138G | ≤ -4.2
C85A C105U A150G | -2.08
U78C U82G U102G | -3.57
U82G G92C | -1.23
C85A C95U | -1.98
U82G C85G G92C C114A | ≤ -4.2
U78G G126U | ≤ -4.2
G84A A91G A122C | -3.61
C79U C87A C96U A98C G141C | ≤ -4.2
G83C G92C G100A U104G U146A | ≤ -4.2
G84A G94A C125A | -1.7
G80U G86U U111C | ≤ -4.2
G83A G136A | -0.0141
G84U G141C U144A | ≤ -4.2
U82G A89C A98G A142C | -1.56
G83C G124A A137G | -1.97
C85A C96G | -2.42
C85A C96U | -2.63
U82G A106U C118U | -0.65
G81C G88A A107C C125A C131U | ≤ -4.2

Variant | polymerase ribozyme fitness (log ratio)
G81C G117C G143U | -4.1
C76U G86C | -0.716
C76G G80U U82A G86U U104C G141C | ≤ -4.2
C85A G143A | -1.99
U82G A107U | -2.6
C79U G83A A107G A110G U144G | ≤ -4.2
G83C A121G | -0.25
G84A C93G C125A G133U | ≤ -4.2
U78A C105U A115U | ≤ -4.2
U78G G86C U102G C108U A119U G140U | ≤ -4.2
G83C C95U | -1.81
G80A C85A A138G | -3.67
G83A G92U G133C A142G | -3.79
U82A C85G | -3.05
G83A C118G | -0.683
G83A G143A | -1.28
G80C G81U | 0.0733
C79U U102C | ≤ -4.2
G83C C118A | -1.14
C85A C96A U101C G143A | ≤ -4.2
C79U C96U | -3.43
U82A C108U | -2.39
G81U C125A | -0.8
G83U C116U A122C | -2.43

Variant | polymerase ribozyme fitness (log ratio)
G84U C99U | -1
C76G C87A U144C G152A | ≤ -4.2
U78G C87A | ≤ -4.2
U78G C79A C108U | ≤ -4.2
C85A C87G G88C A97G U130G G141C | ≤ -4.2
G84C C93U | -4.07
C76U C95U C96U G124U | -1.17
C79U G141A | -2.05
U78A G83U | ≤ -4.2
C85A G86U A110C C131A | ≤ -4.2
U82G C105U | 1.06
G83A G117C | -0.0387
G83U C93G A121U | ≤ -4.2
U77A G84A C85U C129A | ≤ -4.2
G80U A119C C123A | -1.18
G84U G126A G136U | -3.56
G80A G92U A97G | -0.375
G81A C87U U146G | -3.41
U78G G117C | ≤ -4.2
U82G C95G | -1.65
G84U G141C | -2.49
G81A C96A A98C | -0.656
G84A G117A C129A | -2.45
U82A C105U | 0.242

Variant | polymerase ribozyme fitness (log ratio)
G84U G88A | -4.15
U82A G86C | -2.69
C76U G84U A113U A122U | -3.77
G84A G143A | -1.65
G81C C87U G100C G117A G126C | ≤ -4.2
C76U C93G | -2.8
G83C U104G C118A | -3.08
C85A G140C | -3.64
G80C C85U | -3.96
U77A A91G G94A | ≤ -4.2
C79A G88A G133U G140A | ≤ -4.2
G83A C131U U139A G143A | ≤ -4.2
G81U A98U C116A | 0.542
G83C A97U C103G U139C | ≤ -4.2
U77C G81A G86U G100A G133U | ≤ -4.2
G84A U101C U146A | -0.212
G80C U82G C87U C99G | 0.273
C79G G81U C95U A107U C108U | ≤ -4.2
G80A C105U | 0.692
G84U U102G A110G | ≤ -4.2
G83U U104C | -0.855
U82G G92C A106G C116U U135C A150G | ≤ -4.2
U78G U148C | -4.15
G84A C87G A110G | ≤ -4.2

Variant | polymerase ribozyme fitness (log ratio)
G81A C93A | -2.37
C79U G143U | -4.12
U82G A142C | -0.83
C79G C85U | -4.04
C76U U77G A147G | ≤ -4.2
G83U G128C | -3.55
G80A A113C U145A | -3.89
C85A C103U C123G A147U | -0.703
G83C G86A C95A A120C | ≤ -4.2
U82G A115U | -1.61
G84A C116G A121U | 0.52
U82A G83A C99U G117A U144A | -2.53
G84U A122C | -2.13
U82G G133C G140A | -3.39
C76U A147U | 0.639
G83C A107U G143A U146C | ≤ -4.2
G83A C116U | -0.551
G84A U139A | -4.11
G84C U101A A122G G126U | -3.41
G84A U101G | -0.429
G81C C93A | -2.57
G81C C93G | -3.69
C76U C79U C85A G92C C132G | ≤ -4.2
